Results published in paper PMC3961655, “Methyllysine Reader Plant Homeodomain (PHD) Finger Protein 20-like 1 (PHF20L1) Antagonizes DNA (Cytosine-5) Methyltransferase 1 (DNMT1) Proteasomal Degradation*” (The Journal of Biological Chemistry, 2014).

Biological target: endogenous DNMT1 (human (endogenous in HeLa, HEK293, …, UniProt P26358 1-1616))
Assay: cell-based or functional assay

Chain of endogenous DNMT1 (human (P26358 whole entry): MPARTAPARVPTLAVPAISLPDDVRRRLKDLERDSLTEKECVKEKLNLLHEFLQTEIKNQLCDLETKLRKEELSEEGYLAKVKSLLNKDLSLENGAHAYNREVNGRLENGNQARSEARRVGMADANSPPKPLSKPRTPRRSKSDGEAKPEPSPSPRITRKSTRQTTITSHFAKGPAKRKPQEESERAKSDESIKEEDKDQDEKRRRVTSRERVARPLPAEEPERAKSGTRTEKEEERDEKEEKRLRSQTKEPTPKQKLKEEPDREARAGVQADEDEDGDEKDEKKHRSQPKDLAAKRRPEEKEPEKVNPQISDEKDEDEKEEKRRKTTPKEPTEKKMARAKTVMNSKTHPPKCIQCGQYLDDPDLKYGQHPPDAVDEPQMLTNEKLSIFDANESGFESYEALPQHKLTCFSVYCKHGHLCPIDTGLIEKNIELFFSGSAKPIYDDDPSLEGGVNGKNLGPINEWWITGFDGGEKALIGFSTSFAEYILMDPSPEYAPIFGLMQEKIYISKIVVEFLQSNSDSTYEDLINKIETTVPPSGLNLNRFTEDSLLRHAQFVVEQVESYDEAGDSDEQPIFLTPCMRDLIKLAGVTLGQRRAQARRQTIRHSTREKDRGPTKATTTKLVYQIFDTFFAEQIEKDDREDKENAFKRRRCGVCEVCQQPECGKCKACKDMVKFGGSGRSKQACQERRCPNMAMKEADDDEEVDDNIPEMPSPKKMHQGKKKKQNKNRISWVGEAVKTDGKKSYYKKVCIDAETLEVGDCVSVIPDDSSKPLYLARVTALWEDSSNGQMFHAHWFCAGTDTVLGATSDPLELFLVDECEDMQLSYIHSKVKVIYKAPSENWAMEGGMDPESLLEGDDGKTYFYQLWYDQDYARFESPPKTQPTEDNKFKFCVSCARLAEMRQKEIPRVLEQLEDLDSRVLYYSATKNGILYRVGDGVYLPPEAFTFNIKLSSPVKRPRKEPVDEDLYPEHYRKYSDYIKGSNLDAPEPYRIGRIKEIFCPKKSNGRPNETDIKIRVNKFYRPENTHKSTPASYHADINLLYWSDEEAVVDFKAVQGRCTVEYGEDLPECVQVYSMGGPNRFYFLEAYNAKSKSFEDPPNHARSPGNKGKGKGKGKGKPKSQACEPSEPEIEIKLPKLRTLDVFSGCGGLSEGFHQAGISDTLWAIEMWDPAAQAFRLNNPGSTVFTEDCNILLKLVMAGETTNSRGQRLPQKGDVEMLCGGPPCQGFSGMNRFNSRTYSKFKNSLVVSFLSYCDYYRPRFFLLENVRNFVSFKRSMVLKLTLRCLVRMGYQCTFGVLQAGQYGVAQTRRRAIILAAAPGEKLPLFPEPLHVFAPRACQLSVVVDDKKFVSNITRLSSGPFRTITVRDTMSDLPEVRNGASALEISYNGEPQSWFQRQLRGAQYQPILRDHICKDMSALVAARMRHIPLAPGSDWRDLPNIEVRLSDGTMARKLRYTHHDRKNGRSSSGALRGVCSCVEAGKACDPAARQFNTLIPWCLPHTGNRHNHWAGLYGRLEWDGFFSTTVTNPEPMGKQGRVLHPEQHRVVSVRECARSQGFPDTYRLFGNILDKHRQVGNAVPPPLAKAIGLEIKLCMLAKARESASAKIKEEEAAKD

B1: endogenous PHF20L1a (natural protein, UniProt A8MW92 1-1017, looked up)
chain: MSKKPPNRPGITFEIGARLEALDYLQKWYPSRIEKIDYEEGKMLVHFERWSHRYDEWIYWDSNRLRPLERPALRKEGLKDEEDFFDFKAGEEVLARWTDCRYYPAKIEAINKEGTFTVQFYDGVIRCLKRMHIKAMPEDAKGQVKSQHPLSWCCPIDPAGSCNQSMGSEDWIALVKAAAAAAAKNKTGSKPRTSANSNKDKDKDERKWFKVPSKKEETSTCIATPDVEKKEDLPTSSETFGLHVENVPKMVFPQPESTLSNKRKNNQGNSFQAKRARLNKITGLLASKAVGVDGAEKKEDYNETAPMLEQAISPKPQSQKKNEADISSSANTQKPALLSSTLSSGKARSKKCKHESGDSSGCIKPPKSPLSPELIQVEDLTLVSQLSSSVINKTSPPQPVNPPRPFKHSERRRRSQRLATLPMPDDSVEKVSSPSPATDGKVFSISSQNQQESSVPEVPDVAHLPLEKLGPCLPLDLSRGSEVTAPVASDSSYRNECPRAEKEDTQMLPNPSSKAIADGRGAPAAAGISKTEKKVKLEDKSSTAFGKRKEKDKERREKRDKDHYRPKQKKKKKKKKKSKQHDYSDYEDSSLEFLERCSSPLTRSSGSSLASRSMFTEKTTTYQYPRAILSVDLSGENLSDVDFLDDSSTESLLLSGDEYNQDFDSTNFEESQDEDDALNEIVRCICEMDEENGFMIQCEECLCWQHSVCMGLLEESIPEQYICYICRDPPGQRWSAKYRYDKEWLNNGRMCGLSFFKENYSHLNAKKIVSTHHLLADVYGVTEVLHGLQLKIGILKNKHHPDLHLWACSGKRKDQDQIIAGVEKKIAQDTVNREEKKYVQNHKEPPRLPLKMEGTYITSEHSYQKPQSFGQDCKSLADPGSSDDDDVSSLEEEQEFHMRSKNSLQYSAKEHGMPEKNPAEGNTVFVYNDKKGTEDPGDSHLQWQLNLLTHIENVQNEVTSRMDLIEKEVDVLESWLDFTGELEPPDPLARLPQLKRHIKQLLIDMGKVQQIATLCSV
half-life of DNMT1 in HeLa cells with cycloheximide, 60 uM UNC1215 (MBT domain inhibitor) against ethanol: ~50%
